We go through 32 molecules from patent US20260209386A1 (MYTHIC THERAPEUTICS, published 2026).

The target in assay [1] is T1, Human PTK7 Protein, His Tag (Acro Biosystems) (human, UniProt Q13308 31-704).
T1 construct: Bought recombinant protein; also called CCK4; tyrosine-protein kinase-like 7; not shown: His tag
T1 sequence: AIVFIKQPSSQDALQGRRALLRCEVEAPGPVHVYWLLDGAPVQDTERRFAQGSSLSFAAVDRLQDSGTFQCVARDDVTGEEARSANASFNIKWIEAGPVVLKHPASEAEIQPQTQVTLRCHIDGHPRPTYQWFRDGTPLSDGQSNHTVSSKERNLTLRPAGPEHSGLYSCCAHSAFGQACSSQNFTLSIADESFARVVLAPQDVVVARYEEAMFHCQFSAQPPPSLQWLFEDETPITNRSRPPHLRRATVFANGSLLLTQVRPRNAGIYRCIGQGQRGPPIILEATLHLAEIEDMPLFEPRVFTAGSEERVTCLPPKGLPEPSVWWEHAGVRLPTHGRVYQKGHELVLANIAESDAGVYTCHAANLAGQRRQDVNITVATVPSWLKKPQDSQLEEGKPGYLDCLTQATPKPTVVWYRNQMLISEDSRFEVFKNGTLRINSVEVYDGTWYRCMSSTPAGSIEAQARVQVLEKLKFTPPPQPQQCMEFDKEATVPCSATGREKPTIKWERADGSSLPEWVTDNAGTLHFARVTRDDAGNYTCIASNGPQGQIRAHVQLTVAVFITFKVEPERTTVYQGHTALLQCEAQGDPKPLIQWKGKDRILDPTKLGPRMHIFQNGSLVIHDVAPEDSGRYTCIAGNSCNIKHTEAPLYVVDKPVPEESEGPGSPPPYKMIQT
Briefly: BLI, antibody on anti-human Fc sensor, 50 nM PTK7 at pH 7.4, dissociation at pH 7.4 or 5.4; 1 = pH dependent binding relative to parent. (In general: Biolayer interferometry detects binding as a change in optical thickness at a sensor tip.)

Assay [2] concerns the target T2, Human PTK7/CCK4 Protein, His Tag, Acro Biosystems PT7-H52H3 (human, UniProt Q13308 31-704).
T2 construct: bought protein; also called Human PTK7 Protein, His Tag, Acro Biosystems; not shown: His tag
T2 sequence: T1 sequence
Kind of assay: BLI, antibody on anti-human Fc sensor.

Positions count from the first letter of the chain named.

B1: MYT11349 (antibody, V domains shown)
VH: EVQLVESGGGLVQPGGSLRLSCTASGIDLSNYAVIWVRQAPGKGLEWVGHIYTYDTTYYANWAKGRFTISRDTSKNTVYLQMNSLRAEDTAVYFCARSFSDISDLIKLWGQGTLVTVSS
VL: EIVMTQSPSTLSASVGDRVIITCQASQSLYNNKDLAWYQQKPGKAPKLLIYEASKLASGVPSRFSGSGSGAEFTLTISSLQPDDFATYYCLGEFSCGSGDCLAFGQGTKLTVL
notes: MYT9797 HC variant; captured via anti-human Fc
For the molecule B1, in assay [1], the binding result is given as “binds”.

B2: MYT11410 (antibody, V domains shown)
VH: B1 VH with H50I
VL: B1 VL with G99H
notes: MYT9797 LC variant; captured via anti-human Fc
Consider B2, for which the binding result in assay [1] is given as “binds”.

B3: MYT11394 (antibody, V domains shown)
VH: B1 VH with H50I
VL: B1 VL with L35H
notes: as for B2
Take B3: the binding result in assay [1] is given as “binds”.

B4: MYT11398 (antibody, V domains shown)
VH: B1 VH with H50I
VL: B1 VL with S54H
notes: as for B2
On to B4, for which the binding result in assay [1] is given as “binds”.

B5: MYT11356 (antibody, V domains shown)
VH: B1 VH with H50I, T57H
VL: B1 VL
notes: as for B1
For B5, the binding result in assay [1] is “binds”.

B6: MYT11352 (antibody, V domains shown)
VH: B1 VH with H50I, T53H
VL: B1 VL
notes: as for B1
As for B6, the binding result in assay [1] is reported as “binds”.

B7: MYT11355 (antibody, V domains shown)
VH: B1 VH with H50I, T56H
VL: B1 VL
notes: as for B1
Turning to B7, the binding result in assay [1] was “binds”.

B8: MYT11354 (antibody, V domains shown)
VH: B1 VH with H50I, D55H
VL: B1 VL
notes: as for B1
In the case of B8, the binding result in assay [1] is “binds”.

B9: MYT11369 (antibody, V domains shown)
VH: B1 VH with H50I, S100H
VL: B1 VL
notes: as for B1
Regarding B9, the binding result in assay [1] is “binds”.

B10: MYT11409 (antibody, V domains shown)
VH: B1 VH with H50I
VL: B1 VL with S98H
notes: as for B2
With B10, the binding result in assay [1] was “binds”.

B11: MYT11357 (antibody, V domains shown)
VH: B1 VH with H50I, Y58H
VL: B1 VL
notes: as for B1
In the case of B11, in assay [1], the binding result is given as “binds”.

B12: MYT11392 (antibody, V domains shown)
VH: B1 VH with H50I
VL: B1 VL with K33H
notes: as for B2
With B12, the binding result in assay [1] is “binds”.

B13: MYT11417 (antibody, V domains shown)
VH: B1 VH with H50I
VL: B1 VL with D34A
notes: MYT9797 LC alanine variant; captured via anti-human Fc
As for B13, the binding result in assay [1] is recorded as “binds”.

B14: MYT11363 (antibody, V domains shown)
VH: B1 VH with H50I, K64H
VL: B1 VL
notes: as for B1
As for B14, the binding result in assay [1] is “binds”.

B15: MYT11396 (antibody, V domains shown)
VH: B1 VH with H50I
VL: B1 VL with E52H
notes: as for B2
Turning to B15, in assay [1], the binding result was “binds”.

B16: MYT11393 (antibody, V domains shown)
VH: B1 VH with H50I
VL: B1 VL with D34H
notes: as for B2
B16: the binding result in assay [1] is “binds”.

B17: MYT11390 (antibody, V domains shown)
VH: B1 VH with H50I
VL: B1 VL with N31H
notes: as for B2
Regarding B17, the binding result in assay [1] was “binds”.

B18: MYT11376 (antibody, V domains shown)
VH: B1 VH with H50I, K107H
VL: B1 VL
notes: as for B1
Take B18: the binding result in assay [1] was “binds”.

B19: MYT11380 (antibody, V domains shown)
VH: B1 VH with H50I, D55A
VL: B1 VL
notes: MYT9797 HC alanine variant; captured via anti-human Fc
B19: the binding result in assay [1] was “binds”.

B20: MYT6231 (antibody, V domains shown)
VH: QVQLVESGGGVVQPGRSLRLSCAASGFTFSSHGMHWVRQAPGKGLEWVAVIWDDGSNKYYVDSVKGRFTISRDNSKNTLYLQMNSLRAEDTAVYYCARDDYYGSGSFNSYYGTDVWGQGTTVTVSS
VL: EIVLTQSPATLSLSPGERATLSCRASQSVSIYLAWYQQKPGQAPRLLIYDASNRATGIPARFSGSGSGTDFTLTISSLEPEDFAVYYCQQRSNWPPFTFGPGTKVDIK
notes: IgG
For B20, the binding result in assay [2] is reported as “no binding (tested: 50 nM PTK7)”.

B21: MYT6244 (antibody, V domains shown)
VH: B20 VH with H32Y, Y59H
VL: B20 VL
notes: IgG
For the molecule B21, the binding result in assay [2] is reported as “no binding (tested: 50 nM PTK7)”.

B22: MYT6254 (antibody, V domains shown)
VH: B20 VH with H32Y, D99H
VL: B20 VL
notes: IgG
B22: in assay [2], the binding result is listed as “no binding (tested: 50 nM PTK7)”.

B23: MYT6253 (antibody, V domains shown)
VH: B20 VH with H32Y, R98H
VL: B20 VL
notes: IgG
As for B23, the binding result in assay [2] is “no binding (tested: 50 nM PTK7)”.

B24: MYT6268 (antibody, V domains shown)
VH: B20 VH with H32Y, T113H
VL: B20 VL
notes: IgG
Take B24: the binding result in assay [2] is listed as “no binding (tested: 50 nM PTK7)”.

B25: MYT6232 (antibody, V domains shown)
VH: B20 VH with H32Y, G33H
VL: B20 VL
notes: IgG
Take B25: in assay [2], the binding result is reported as “no binding (tested: 50 nM PTK7)”.

B26: MYT6256 (antibody, V domains shown)
VH: B20 VH with H32Y, Y101H
VL: B20 VL
notes: IgG
For B26, the binding result in assay [2] is “no binding (tested: 50 nM PTK7)”.

B27: MYT6269 (antibody, V domains shown)
VH: B20 VH with H32Y, D114H
VL: B20 VL
notes: IgG
Regarding B27, the binding result in assay [2] is “no binding (tested: 50 nM PTK7)”.

B28: MYT6255 (antibody, V domains shown)
VH: B20 VH with H32Y, D100H
VL: B20 VL
notes: IgG
As for B28, the binding result in assay [2] is “no binding (tested: 50 nM PTK7)”.

B29: MYT6267 (antibody, V domains shown)
VH: B20 VH with H32Y, G112H
VL: B20 VL
notes: IgG
Turning to B29, the binding result in assay [2] is “no binding (tested: 50 nM PTK7)”.

B30: MYT6210 (antibody, V domains shown)
VH: QVQLVQSGPEVKKPGASVKVSCKASGYTFTDYAVHWVRQAPGKRLEWIGVISTYNDYTYNNQDFKGRVTMTRDTSASTAYMELSRLRSEDTAVYYCARGNSYFYALDYWGQGTSVTVSS
VL: EIVLTQSPATLSLSPGERATLSCRASESVDSYGKSFMHWYQQKPGQAPRLLIYRHSNLESGIPARFSGSGSGTDFTLTISSLEPEDFAVYYCQQSNEDPWTFGGGTKLEIK
notes: IgG
On to B30, for which the binding result in assay [2] is reported as “no binding (tested: 50 nM PTK7)”.

B31: MYT6221 (antibody, V domains shown)
VH: B30 VH
VL: B30 VL with H55A, D98H
notes: IgG
As to B31, the binding result in assay [2] is “no binding (tested: 50 nM PTK7)”.

B32: MYT6218 (antibody, V domains shown)
VH: B30 VH
VL: B30 VL with H55A, S95H
notes: IgG
B32: in assay [2], the binding result is reported as “no binding (tested: 50 nM PTK7)”.
